Reference: patent publication US20220324932A1 (CSPC MEGALITH BIOPHARMACEUTICAL, published 2022)

T1: IL-2Rα (CD25) on the cell surface of mouse T cells (CTLL-2 cells; Treg cells of C57BL/6 mice) (mouse, UniProt P01590 22-268)
T1 sequence (looked up): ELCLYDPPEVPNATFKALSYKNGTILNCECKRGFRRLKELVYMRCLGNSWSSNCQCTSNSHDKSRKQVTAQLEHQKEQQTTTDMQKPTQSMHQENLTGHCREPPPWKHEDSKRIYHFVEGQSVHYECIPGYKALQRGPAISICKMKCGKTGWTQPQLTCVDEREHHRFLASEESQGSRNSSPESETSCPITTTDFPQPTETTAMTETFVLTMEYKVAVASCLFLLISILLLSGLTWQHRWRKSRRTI

B1: IL-2A2 (modified IL-2 protein with exogenous patch sequence IFKQTY replacing a portion of IL-2 Aldesleukin) (ligand)
chain: PTSSSTKKTQLQLEHLLLDLQMILNGINNYKNPKLTRMLIFKQTYPKKATELKHLQCLEEELKPLEEVLNLAQSKNFHLRPRDLISNINVIVLELKGSETTFMCEYADETATIVEFLNRWITFSQSIISTLT
B2: PEG-20K-IL-2A2 (IL-2A2 conjugated with 20 kDa methoxy-PEG-amine) (ligand)
chain: B1 chain
modifications: 20 kDa methoxy-PEG-amine conjugated by mTGase to the engineered Q residue of the IFKQTY patch

Target: T1, IL-2Rα (CD25) on the cell surface of …
Assay: cell-based or functional assay

Binder	fold decrease in bioactivity in inducing CTLL-2 cell growth, compared to parent IL-2 Aldesleukin	percentage of Treg cells in blood of C57BL/6 mice after treatment
B1	~49 fold	0.32%
B2	–	0.25%
